Experimental data reported in US20250216395A1 (ATYR PHARMA, published 2025).

T1: NRP1v2 (22-602) (human, UniProt O14786 22-602)
T1 construct: Recombinant protein; also called human NRP1
T1 sequence: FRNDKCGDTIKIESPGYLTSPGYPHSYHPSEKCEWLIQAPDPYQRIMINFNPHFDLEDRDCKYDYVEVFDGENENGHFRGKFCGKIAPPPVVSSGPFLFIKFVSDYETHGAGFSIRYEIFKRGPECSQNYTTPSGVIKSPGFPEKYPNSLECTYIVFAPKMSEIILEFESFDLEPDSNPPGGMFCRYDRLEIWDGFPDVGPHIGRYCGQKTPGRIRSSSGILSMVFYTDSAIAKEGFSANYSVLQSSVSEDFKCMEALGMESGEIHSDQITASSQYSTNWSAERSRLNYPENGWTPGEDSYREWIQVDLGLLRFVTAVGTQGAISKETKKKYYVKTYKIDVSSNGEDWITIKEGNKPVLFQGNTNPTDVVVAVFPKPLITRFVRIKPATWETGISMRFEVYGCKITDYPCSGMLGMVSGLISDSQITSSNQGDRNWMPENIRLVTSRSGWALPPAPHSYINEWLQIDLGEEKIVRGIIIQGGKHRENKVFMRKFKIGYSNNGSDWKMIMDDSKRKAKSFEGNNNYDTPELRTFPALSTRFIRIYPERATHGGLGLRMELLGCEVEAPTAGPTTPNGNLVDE

B1: aNRP2-36v2 (antibody, V domains shown)
VH: ELQLQQSGPELVKPGASVKISCKASGYSFTDYNMNWVKQSNGKSLEWIGVINPKSGTTVYNQKFKGKATLTVDQSSSTAYMQLNSLTSEDSAVYYCARADSSGGCWGQGTTLTVSS
VL: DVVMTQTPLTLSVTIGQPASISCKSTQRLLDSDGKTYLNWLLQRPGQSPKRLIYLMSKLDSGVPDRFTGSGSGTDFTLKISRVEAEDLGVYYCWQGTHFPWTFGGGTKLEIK
notes: Three purification lots were tested; also called antibody aNRP2-36v2; anti-NRP2 antibody

Columns and labels:
[1] = target: T1, NRP1v2 (22-602); assay: Western blot, denatured recombinant protein with or without 50 mM DTT
Protocol: To characterize the binding specificity of antibody aNRP2-36v2 to different denatured isoforms of NRP2 its binding specificity was tested via western blot. In addition to assessing the relative binding to NRP2a and NRP2b, cross-reactivity to mouse and rat NRP2 were also evaluated, as well as non-specific binding to NRP1. The proteins tested via Western were NRP2v2 (23-855) (SEQ ID NO: 14), NRP2v5 (23-832) (SEQ ID NO: 27), mouse NRP2v2 (23-855) (SEQ ID NO: 21), rat NRP2×2 (23-854) (SEQ ID NO: 22), and NRP1v2 (22-602) (SEQ ID NO: 24).
25 ng of each recombinant protein was denatured for 10 minutes at 70° C. with 1×LDS (ThermoFisher, NP0007) with or without 50 mM DTT and separated on a 4-12% Bis-Tris Protein Gel (ThermoFisher, NP0335) in 1×MOPS buffer (ThermoFisher, NP000102). The gel was then transferred to a nitrocellulose membrane (Fisher, cat. #IB23001) using an iBlot2 (Fisher, cat. #IB21001) for 7 min at 20V. The membrane was blocked for 1 hour using a 5% milk 0.05% TBST solution, followed by 1.0 ug/mL of the three lots of aNRP2-36v2 antibody diluted in 5% milk 0.05% TBST. Antibody was incubated on the blots overnight at 4° C. with rocking. After overnight incubation 3 washes with 0.05% TBST for 5 minutes each were performed and goat-a-mouse HRP secondary (Jackson Immuno Research, 115-035-071) diluted at 1:5,000 in the 5% milk mixture was applied to the blots for 1 hour. […]

[2] = target: B1; assay: Western blot competition: 1 ug/mL aNRP2-36v2 with 5 ug/mL blocking peptide; the blocked detection is that of NRP2v2 (23-855) and of NRP2a isoform 2 in lysate
Protocol: The specificity of aNRP2-36v2 in Western blotting was also confirmed by the ability of the blocking peptide NRP2 (642-659) (SEQ ID NO: 25) to block binding. For these studies, 100 ng of NRP2v2 (23-855) (SEQ ID NO: 14) recombinant protein and 20 ug of total protein from cell lysates of Expi293 cells transiently expressing NRP2a isoform 2 (SEQ ID NO: 10) were denatured for 10 minutes at 70° C. with 1×LDS (ThermoFisher, NP0007) and separated on a 4-12% Bis-Tris Protein Gel (ThermoFisher, NP0335) in 1×MOPS buffer (ThermoFisher, NP000102). The gel was then transferred to a nitrocellulose membrane (Fisher, cat. #IB23001) using an iBlot2 (Fisher, cat. #IB21001) for 7 min at 20V. The membrane was blocked for 1 hour using a 5% milk 0.05% TBST solution, followed by 1 ug/mL of aNRP2-36v2 antibody with or without 5 ug/mL blocking peptide, diluted in 5% milk 0.05% TBST. A peptide corresponding to NRP2v2 (809-820) (SEQ ID NO: 26) was also used as a control. Antibody was incubated on the blots overnight at 4° C. with rocking. After overnight incubation 3 washes with 0.05% TBST for 5 minutes each were performed and goat-a-mouse HRP secondary (Jackson Immuno Research, 115-035-071) diluted at 1:5,000 in the 5% milk mixture was applied to the blots for 1 hour. This was followed by 3 more washes with 0.05% TBST for 5 minutes each. […]

Sequence of aNRP2-36v2 (VL, as listed by the source): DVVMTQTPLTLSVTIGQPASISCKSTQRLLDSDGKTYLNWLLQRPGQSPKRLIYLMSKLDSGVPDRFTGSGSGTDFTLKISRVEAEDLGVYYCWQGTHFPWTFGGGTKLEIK

| Binder | binding result [1] | binding result [2] |
| --- | --- | --- |
| B1 | no binding | – |
| SGFNCNFDFLEEPCGWMY (Peptide corresponding to residues 642-659 of NRP2) [blocking peptide NRP2 (642-659)] | – | binds |
